Source: publication PMC3777911 (PLoS ONE, 2013)

T1: His-Sec31A (human, UniProt O94979 1-1220)
T1 construct: human Sec31A; also called wt Sec31A; source: co-expressed with HA-Sec13 in ES-SF9 cells (Bac-to-Bac baculovirus)
T1 sequence (looked up): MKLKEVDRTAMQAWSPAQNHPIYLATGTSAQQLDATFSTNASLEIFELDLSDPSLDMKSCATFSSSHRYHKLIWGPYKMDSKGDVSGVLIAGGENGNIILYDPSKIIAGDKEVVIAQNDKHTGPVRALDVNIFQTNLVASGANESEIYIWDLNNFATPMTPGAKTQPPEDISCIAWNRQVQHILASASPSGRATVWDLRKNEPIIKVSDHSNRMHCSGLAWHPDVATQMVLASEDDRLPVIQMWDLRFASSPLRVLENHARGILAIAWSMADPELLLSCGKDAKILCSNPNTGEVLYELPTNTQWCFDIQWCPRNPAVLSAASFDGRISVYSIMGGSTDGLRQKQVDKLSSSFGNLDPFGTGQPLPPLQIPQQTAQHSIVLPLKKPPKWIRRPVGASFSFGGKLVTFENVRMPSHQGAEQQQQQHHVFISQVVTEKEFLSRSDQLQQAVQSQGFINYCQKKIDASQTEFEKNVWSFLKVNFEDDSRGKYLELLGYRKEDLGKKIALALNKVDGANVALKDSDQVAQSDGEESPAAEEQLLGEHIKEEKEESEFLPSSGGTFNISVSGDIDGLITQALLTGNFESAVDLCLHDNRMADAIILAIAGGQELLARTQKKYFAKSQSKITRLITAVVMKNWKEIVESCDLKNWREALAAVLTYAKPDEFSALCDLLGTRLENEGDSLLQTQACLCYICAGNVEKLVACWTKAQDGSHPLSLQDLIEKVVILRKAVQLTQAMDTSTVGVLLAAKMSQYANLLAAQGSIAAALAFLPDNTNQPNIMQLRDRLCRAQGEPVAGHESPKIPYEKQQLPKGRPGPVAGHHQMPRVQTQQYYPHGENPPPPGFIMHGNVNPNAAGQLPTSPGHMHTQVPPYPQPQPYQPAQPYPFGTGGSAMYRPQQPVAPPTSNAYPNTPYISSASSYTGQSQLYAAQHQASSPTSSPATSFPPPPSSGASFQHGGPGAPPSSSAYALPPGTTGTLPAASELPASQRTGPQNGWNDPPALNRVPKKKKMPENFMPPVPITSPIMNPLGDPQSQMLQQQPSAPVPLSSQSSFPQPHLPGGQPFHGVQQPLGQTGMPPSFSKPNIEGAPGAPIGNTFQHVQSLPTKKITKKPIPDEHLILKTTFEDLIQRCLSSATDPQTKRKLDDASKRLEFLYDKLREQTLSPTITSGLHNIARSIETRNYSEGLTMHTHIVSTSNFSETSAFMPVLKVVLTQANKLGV


How the values were obtained:
[1] = target: T1, His-Sec31A; experiment: co-purification (Ni-NTA affinity chromatography); the two chains co-expressed in ES-SF9 cells; complex purified on Ni-NTA through the His tag of Sec31A or Sec24; purified Sec13/Sec31A collected again on Ni beads, SyproRed; details: partners not purified
[2] = target: T2, HA-Sec13/His-Sec31A complex (outer COPII coat), wild type ( | human, UniProt P55735 1-322; O94979 1-1220); experiment: pull-down; His-tagged Sec31A (Sec13/Sec31A) immobilised on Nickel beads, recombinant ALG-2 versions added, in the presence of Ca2+; eluates on SDS-PAGE, SyproRed; ratios from fluorescence intensity; details: both partners purified
T2 construct: Sec13, mammalian COPII outer coat protein; human Sec31A; also called Sec13/31A; Sec13/Sec31A (wt); source: co-expressed in ES-SF9 cells (Bac-to-Bac baculovirus), purified (Ni-NTA)

Row | Binder | stoichiometry N [1] | stoichiometry N [2]
1 | HA-Sec13 (natural protein, UniProt P55735 1-322, looked up, Sec13, mammalian COPII outer coat protein; source: co-expressed with His-Sec31A or His-Sec31ADelABD in ES-SF9 cells (Bac-to-Bac baculovirus)) MVSVINTVDTSHEDMIHDAQMDYYGTRLATCSSDRSVKIFDVRNGGQILIADLRGHEGPVWQVAWAHPMYGNILASCSYDRKVIIWREENGTWEKSHEHAGHDSSVNSVCWAPHDYGLILACGSSDGAISLLTYTGEGQWEVKKINNAHTIGCNAVSWAPAVVPGSLIDHPSGQKPNYIKRFASGGCDNLIKLWKEEEDGQWKEEQKLEAHSDWVRDVAWAPSIGLPTSTIASCSQDGRVFIWTCDDASSNTWSPKLLHKFNDVVWHVSWSITANILAVSGGDNKVTLWKESVDGQWVCISDVNKGQGSVSASVTEGQQNEQ | ~1 Sec13 per Sec31A (molar ratio) | 
2 | ALG-2 (product of the apoptosis linked gene-2), recombinant wild type (natural protein, UniProt P12815 1-191, looked up, also called wt ALG-2; rALG-2; source: recombinant, purified as previously described [16]) MAAYSYRPGPGGGPGPAAGAALPDQSFLWNVFQRVDKDRSGVISDNELQQALSNGTWTPFNPVTVRSIISMFDRENKAGVNFSEFTGVWKYITDWQNVFRTYDRDNSGMIDKNELKQALSGFGYRLSDQFHDILIRKFDRQGRGQIAFDDFIQGCIVLQRLTDIFRRYDTDQDGWIQVSYEQYLSMVFSIV |  | ~2 ALG-2 per Sec31A (molar ratio)
